Results reported in paper PMC6048764, “Myricetin antagonizes semen-derived enhancer of viral infection (SEVI) formation and influences its infection-enhancing activity” (Retrovirology, 2018).

B1: PAP257–273 Leu268A (peptide, UniProt P15309 257-273, looked up)
peptide: RLQGGVLVNEIANHMKR
notes: source: synthetic peptide
B2: PAP257–273 GIn259A (peptide, UniProt P15309 257-273, looked up)
peptide: RLAGGVLVNEILNHMKR
notes: source: synthetic peptide
B3: PAP257–273 Leu258A (peptide, UniProt P15309 257-273, looked up)
peptide: RAQGGVLVNEILNHMKR
notes: source: synthetic peptide
B4: SEM2_(86–107) (peptide, UniProt Q02383 86-107, looked up)
peptide: DLNALHKATKSKQHLGGSQQLL
notes: source: synthetic peptide (Scilight Biotechnology LLC, Beijing)
B5: PAP257–273 Arg273A (peptide, UniProt P15309 257-273, looked up)
peptide: RLQGGVLVNEILNHMKA
notes: source: synthetic peptide
B6: SEM1_(86–107) (peptide, UniProt P04279 86-107, looked up)
peptide: DLNALHKTTKSQRHLGGSQQLL
notes: as for B4

Biological target: the molecule itself
Test: thioflavin T fluorescence; amyloid fibril formation; peptide 3 mg/ml agitated at 1400 rpm at 37 °C for 48 h, without myricetin

Binding result, binds:
B1, B2, B3, B4, B5, B6
